experiment: soluble on expression in E. coli; label from the status in PepcDB or PDB records

| Sequence | soluble on expression in E. coli |
| --- | --- |
| MGSSHHHHHHGGTGENLYFQGGSGRDREVVECLLGMEQWLRELNRPLASAGVGGSVDVGASSSLLSGFPPCMEGDALRSAYRSALSELRLLVLGVLNTMPWWRVVETVAGNPPAAQTGGARTASAGGGDNSSSEAGAARVAARHAGGWDRSAAALHVITRWHARLQIAFERVCLVLIDQSQQTVRGVLEVLLKPCQLRPPVRDGARRSIPSDSFIRVLNAVATKYSPVYVVELLEGCIADFMPRRRWAERRHHVACTAVLLYLALEGHTPAYHPQLGNSYSLQRAVRLLTSLRSRRADGRCALSGSPWLLPHATGSYSLTLP | not soluble |
| MGSSHHHHHHSSASMTGGQQMGRTLYDDDDKDRWGSELETGRQKARGAATRARQKQRASLETMDKAVQRFRLQNPDLDSEALLTLPLLQLVQKLQSGELSPEAVFFTYLGKAWEVNKGTNCVTSYLTDCETQLSQAPRQGLLYGVPVSLKECFSYKGHDSTLGLSLNEGMPSESDCVVVQVLKLQGAVPFVHTNVPQSMFSYDCSNPLFGQTMNPWKSSKSPGGSSGGEGALIGSGGSPLGLGTDIGGSIRFPSAFCGICGLKPTGNRLSKSGLKGCVYGQTAVQLSLGPMARDVESLALCLKALLCEHLFTLDPTVPPLPFREEVYRSSRPLRVGYYETDNYTMPSPAMRRALIETKQRLEAAGHTLIPFLPNNIPYALEVLSTGGLFSDGGRSFLQNFKGDFVDPCLGDLILILRLPSWFKRLLSLLLKPLFPRLAAFLNNMRPRSAEKLWKLQHEIEMYRQSVIAQWKAMNLDVLLTPMLGPALDLNTPGRATGAVSYTMLYNCLDFPAGVVPVTTVTAEDDAQMELYKGYFGDIWDIILKKAMKNSVGLPVAVQCVALPWQEELCLRFMREVEQLMTPQKQPS | soluble |
| MGSSHHHHHHSSGLEVLFQGPHMDFDVKRKYFRQELERLDEGLRKEDMAVHVRRDHVFEDSYRELHRKSPEEMKNRLYIVFEGEEGQDAGGLLREWYMIISREMFNPMYALFRTSPGDRVTYTINPSSHANPNHLSYFKFVGRIVAKAVYDNRLLECYFTRSFYKHILGKSVRYTDMESEDYHFYQGLVYLLENDVSTLGYDLTFSTEVQEFGVAEVRDLKPNGANILVTEENKKEYVHLVCQMRMTGAIRKQLAAFLEGFYEIIPKRLISIFTEQELELLISGLPTIDIDDLKSNTEYHKYQSNSIQIQWFWRALRSFDQADRAKFLQFVTGTSKVPLQGFAALEGMNGIQKFQIHRDDRSTDRLPSAHTCFNQLDLPAYESFEKLRHMLLLAIQEASEGFGLA | soluble |
| MGSSHHHHHHSSGLVPRGSHMASMAGLGHPAAFGRATHAVVRALPESLGQHALRSAKGEEVDVARAERQHQLYVGVLGSKLGLQVVELPADESLPDCVFVEDVAVVCEETALITRPGAPSRRKEVDMMKEALEKLQLNIVEMKDENATLDGGDVLFTGREFFVGLSKRTNQRGAEILADTFKDYAVSTVPVADGLHLKSFCSMAGPNLIAIGSSESAQKALKIMQQMSDHRYDKLTVPDDIAANCIYLNIPNKGHVLLHRTPEEYPESAKVYEKLKDHMLIPVSMSELEKVDGLLTCCSVLINKKVDS | soluble |
| MGSSHHHHHHSSGLVPRGSHMEAIGVLMMCPMSTYLEQELDKRFKLFRYWTQPAQRDFLALQAESIRAVVGNSNAGADAELIDALPKLEIVSSFSVGLDKVDLIKCEEKGVRVTNTPDVLTDDVADLAIGLILAVLRRICECDKYVRRGAWKFGDFKLTTKFSGKRVGIIGLGRIGLAVAERAEAFDCPISYFSRSKKPNTNYTYYGSVVELASNSDILVVACPLTPETTHIINREVIDALGPKGVLINIGRGPHVDEPELVSALVEGRLGGAGLDVFEREPEVPEKLFGLENVVLLPHVGSGTVETRKVMADLVVGNLEAHFSGKPLLTPVV | soluble |
| MGSSHHHHHHSSGLVPRGSHMEFKVIAEYFDKLEKISSRLQLTALLADLLSKSDKTIIDKVVYIIQGKLWPDFLGYPELGIGEKFLIKAISIATNTDENSVENLYKTIGDLGEVARRLKSKQQSTGILGFLGTTSKESLTVDEVYSTLSKVALTTGEGSRDLKIRLLAGLLKKADPLEAKFLVRFVEGRLRVGIGDATVLDAMAIAFGGGQSASEIIERAYNLRADLGNIAKIIVEKGIEALKTLKPQVGIPIRPMLAERLSNPEEILKKMGGNAIVDYKYDGERAQIHKKEDKIFIFSRRLENITSQYPDVVDYVSKYIEGKEFIIEGEIVAIDPESGEMRPFQELMHRKRKSDIYEAIKEYPVNVFLFDLMYYEDVDYTTKPLEARRKLLESIVKPNDYVKIAHHIQANNVEDLKSFFYRAISEGGEGVMVKAIGKDAIYQAGARGWLWIKLKRDYQSEMADTVDLVVVGGFYGKGKRGGKISSLLMAAYNPKTDSFESVCKVASGFSDEQLDELQKKLMEIKRDVKHPRVNSKMEPDIWVEPVYVAEIIGSEITISPLHTCCQDVVEKDAGLSIRFPRFIRWRDDKSPEDATTTDEILEMYNKQPKKKIESPAVDESV | soluble |
| MGSSHHHHHHSSGLVPRGSHMIRYSEVTPYHVTSVWTKGVTPPANFTQGEDVFHAPYVANQGWYDITKTFNGKDDLLSGAATAGNMLHWWFDQNKDQIKRYLEEHPEKQKINFNGEQMFDVKEAIDTKNHQLDSKLFEYFKEKAFPYLSTKHLGVFPDHVIDMFINGYRLSLTNHGPTPVKEGSKDPRGGIFDAVFTRGDQSKLLTSRHDFKEKNLKEISDLIKKELTEGKALGLSHTYANVRINHVINLWGADFDSNGNLKAIYVTDSDSNASIGMKKYFVGVNSAGKVAISAKEIKEDNIGAQVLGLFTLSTGQDSWNQTN | soluble |
| MGSSHHHHHHSSGLVPRGSHMKKNSLALSLTADQMVSALLDAEPPILYSEYDPTRPFSEASMMGLLTNLADRELVHMINWAKRVPGFVDLTLHDQVHLLECAWLEILMIGLVWRSMEHPVKLLFAPNLLLDRNQGKCVEGMVEIFDMLLATSSRFRMMNLQGEEFVCLKSIILLNSGVYTFLSSTLKSLEEKDHIHRVLDKITDTLIHLMAKAGLTLQQQHQRLAQLLLILSHIRHMSNKGMEHLYSMKCKNVVPLYDLLLEMLDAHRLHAP | not soluble |
| MGSSHHHHHHSSGLVPRGSHMKMSFRWYGKKDPVTLEEIKAIPGMQGIVTAVYDVPVGQAWPLENILELKKMVEEAGLEITVIESIPVHEDIKQGKPNRDALIENYKTSIRNVGAAGIPVVCYNFMPVFDWTRSDLHHPLPDGSTSLAFLKSDLAGVDPVADDLNLPGWDSSYSKEEMKAIIENYRQNISEEDLWANLEYFIKAILPTAEEAGVKMAIHPDDPPYGIFGLPRIITGQEAVERFLNLYDSEHNGITMCVGSYASDPKNDVLAMTEYALKRNRINFMHTRNVTAGAWGFQETAHLSQAGDIDMNAVVKLLVDYDWQGSLRPDHGRRIWGDQTKTPGYGLYDRALGATYFNGLYEANMRAAGKTPDFGIKAKTVGTKEG | soluble |
| MGSSHHHHHHSSGLVPRGSHMNTNSNTMVMNDANQAQITATFTKKILAHLDDPDSNKLAQFVQLFNPNNCRIIFNATPFAQATVFLQMWQNQVVQTQHALTGVDYHAIPGSGTLICNVNCKVRFDESGRDKMGQDATVPIQPNNTGNRNRPNDMNKPRPLWGPYFGISLQLIIDDRIFRNDFNGVISGFNYNMVYKPEDSLLKI | soluble |
| MGSSHHHHHHSSGLVPRGSHMRIGMVCPYSFDVPGGVQSHVLQLAEVLRDAGHEVSVLAPASPHVKLPDYVVSGGKAVPIPYNGSVARLRFGPATHRKVKKWIAEGDFDVLHIHEPNAPSLSMLALQAAEGPIVATFHTSTTKSLTLSVFQGILRPYHEKIIGRIAVSDLARRWQMEALGSDAVEIPNGVDVASFADAPLLDGYPREGRTVLFLGRYDEPRKGMAVLLAALPKLVARFPDVEILIVGRGDEDELREQAGDLAGHLRFLGQVDDATKASAMRSADVYCAPHLGGESFGIVLVEAMAAGTAVVASDLDAFRRVLADGDAGRLVPVDDADGMAAALIGILEDDQLRAGYVARASERVHRYDWSVVSAQIMRVYETVSGAGIKVQVSGAANRDETAGESV | soluble |
| MGSSHHHHHHSSGLVPRGSHMSKARVYADVNVLRPKEYWDYEALTVQWGEQDDYEVVRKVGRGKYSEVFEGINVNNNEKCIIKILKPVKKKKIKREIKILQNLCGGPNIVKLLDIVRDQHSKTPSLIFEYVNNTDFKVLYPTLTDYDIRYYIYELLKALDYCHSQGIMHRDVKPHNVMIDHELRKLRLIDWGLAEFYHPGKEYNVRVASRYFKGPELLVDLQDYDYSLDMWSLGCMFAGMIFRKEPFFYGHDNHDQLVKIAKVLGTDGLNAYLNKYRIELDPQLEALVGRHSRKPWLKFMNADNQHLVSPEAIDFLDKLLRYDHQERLTALEAMTHPYFQQVRAAENSRTRA | soluble |
| MGSSHHHHHHSSGLVPRGSHMTDKLTSLRQYTTVVADTGDIAAMKLYQPQDATTNPSLILNAAQIPEYRKLIDDAVAWAKQQSNDRAQQIVDATDKLAVNIGLEILKLVPGRISTEVDARLSYDTEASIAKAKRLIKLYNDAGISNDRILIKLASTWQGIRAAEQLEKEGINCNLTLLFSFAQARACAEAGVFLISPYVGEILDWYKANTDKKEYAPAEDPGVVSVSEIYQYYKEHGYETVVMGASFRNIGEILELAGCDRLTIAPTLLKELAESEGAIERKLSYTGEVKARPARITESEFLWQHNQDPMAVDKLAEGIRKFAIDQEKLEKMIGDLL | soluble |
| MGSSHHHHHHSSGLVPRGSHMWIGVISLFPEMFKAITEFGVTGRAVKHNLLKVECWNPRDFTFDKHKTVDDRPYGGGPGMLMMVQPLRDAIHTAKAAAGEGAKVIYLSPQGRKLDQGGVTELAQNQKLILVCGRYEGIDERLIQTEIDEEWSIGDYVLTGGELPAMTLIDAVARFIPGVLGKQASAEEDSFADGLLDCPHYTRPEVLEGLTVPPVLMSGHHEEIRKWRLKQSLQRTWLRRPELLEGLALTDEQRKLLKEAQAEHNSLEHHHHHH | soluble |
| MGSSHHHHHHSSGLVPRGSMGFKVKLEKRRNAINTCLCIGLDPDEKDIENFMKNEKENNYNNIKKNLKEKYINNVSIKKDILLKAPDNIIREEKSEEFFYFFNHFCFYIINETNKYALTFKMNFAFYIPYGSVGIDVLKNVFDYLYELNIPTILDMKINDIGNTVKNYRKFIFEYLKSDSCTVNIYMGTNMLKDICYDEEKNKYYSAFVLVKTTNPDSAIFQKNLSLDNKQAYVIMAQEALNMSSYLNLEQNNEFIGFVVGANSYDEMNYIRTYFPNCYILSPGIGAQNGDLHKTLTNGYHKSYEKILINIGRAITKNPYPQKAAQMYYDQINAILKQNMES | soluble |
| MGSSHHHHHHSSGRENLYFQGHMFFTDWEGPWILTDFALELCMAVFNNARFFSNLSEYDDYLAYEVRREGYEAGYTLKLLTPFLAAAGVKNRDVERIAELSAKFVPDAEKAMATLQERWTPVVISTSYTQYLRRTASMIGVRGELHGTEVDFDSIAVPEGLREELLSIIDVIASLSGEELFRKLDELFSRSEVRKIVESVKAVGAGEKAKIMRGYCESKGIDFPVVVGDSISDYKMFEAARGLGGVAIAFNGNEYALKHADVVIISPTAMSEAKVIELFMERKERAFEVLSAVSIPETEIYIMENSDFGEVLEKSKRMRVRLRGLAGELGGS | soluble |
| MGSSHHHHHHSSGRENLYFQGHMMSGHNKWANIKHRKMAQDAKKSKIFTKLIREIIVAAREGGGNIETNPRLRAAVERARAENMPKENIERAIKRGTGELEGVDYQEVIYEGYAPGGVAVYIRALTDNKNRTAQELRHLFNKYGGSLAESGSVSWIFERKGVIEISRDKVKDLEELMMIAIDAGAEDIKDAEDPIQIITAPENLSEVKSKLEEAGYEVEAKVTFIPKNTVKVTGKDAEKVLEFLNALEDMDDVQEVYSNFEMDDKEMEEILSRLEG | soluble |

From the DeepSol protein solubility set
